# Patent US20240325562A1, “INTERNALIZING BINDING MOLECULES” (LinXis B.V., priority 2020, published 2024)
# B1: SP02P: VHH single domain antibody targeting PDGFRB, SEQ ID NO: 9 (protein)
# VHH: EVQLVESGGGLVQAGGSLRLSCAASESISSIEQMGWFRQAPGKQRALVAINTYGGRTVYTNSVEGRFTMSRDSAKNMVYLQMTSLEPEDTAVYYCYAQTTAWRGGVWGQGTQVTVSS
# B2: SP07P: VHH single domain antibody targeting PDGFRB, SEQ ID NO: 33 (protein)
# VHH: EVQLVESGGGSVQTGGSLRLSCAASGRSFSTYAMAWFRQAPGKEREFVAAINRRATDTVYADSAKGRFIISRDNDKNTVYLQMDSLKTEDTAVYYCAAAKNAYDWRWDRLRDRDYWGQRGQGTQVTVSS
# B3: SP10P: VHH single domain antibody targeting PDGFRB, SEQ ID NO: 49 (protein)
# VHH: EVQLVESGGGLVQAGGSLRLSCAASGRTFNGYAMGWFRQAPGKERDFVAAITWSYGYTHYAESVKGRFSISRDSANNMVYLEMNSLKPEDTAVYYCAADPKASRFRTLRRYDYWGQGTQVTVSS
# B4: SP12P: VHH single domain antibody targeting PDGFRB, SEQ ID NO: 65 (protein)
# VHH: EVQLVESGGGLVQAGGSLRLSCVISGRTSPTYPMGWFRQSPGNEREFVASINWSGGWRNYADSVKGRFTISRDDAKNTVYLQMNSLKPEDTAVYYCARGQYSSGTPVYAHEYAYWGQGTQVTVSS
# B5: SP01P: VHH single domain antibody targeting PDGFRB, SEQ ID NO: 1 (protein)
# VHH: EVQLVESGGGLAQAGGSLRLSCVASGNIDSANGMAWYRQAPGKQRELVAHITSGTSYYVASVEGRFTISRANAKDTWYLQMNSLKPEDTGVYYCFPIGLSAHWSQGTQVTVSS
# B6: SP08P: VHH single domain antibody targeting PDGFRB, SEQ ID NO: 41 (protein)
# VHH: EVQLVESGGGLVQAGGSLRLSCAASGRTFNGYAMAWFRQAPGKERDFVASITWSYGYTYYADSAQGRFTISRDSAKNTVYLEMNSLKPEDTAVYYCAADPKASRFRILRQYAHWGQGTQVTVSS
# B7: SP13P: VHH single domain antibody targeting PDGFRB, SEQ ID NO: 73 (protein)
# VHH: EVQLVESGGGLVQPGGSLRLSCAASESIFSINYMAWYRQAPGKQRELVAFSIDGSSTNYVDSVRGRFTASRDNAENTLYLQMNSLKPEDTAVYYCYAQGNTWAAGVWGQGTQVTVSS
# B8: SP05P: VHH single domain antibody targeting PDGFRB, SEQ ID NO: 25 (protein)
# VHH: EVQLVESGGGLVQAGGSLRLSCAASGRTSFSGYAMAWFRQAPGKERDFVASITWSYGYTYYTDSAQGRFTISRDSAKNTVYLEMNSLKPEDTAVYYCAADPKASRFRILREYAYWGQGTQVTVSS
# B9: SP14P: VHH single domain antibody targeting PDGFRB, SEQ ID NO: 81 (protein)
# VHH: EVQLVESGGGLVQAGDSLRLSCVVSGLTFSRYGMGWFRQATGKEREFVGGISVGSSGTMYPNSVKGRFTISRDNAKSTVYLQMNSLKPEDTAVYFCAAIDQGSFVQQRDYRYWGQGTQVTVSS
# Target: hPDGFRB (Homo sapiens, UniProt P09619)
# Experiment: Competition assays of PDGFRB VHHs on hPDGFRB
# Type: binding
# Conditions: IRDye800-conjugated SP26P as reporter
# Experimental: Biparatopic VHH constructs contain two VHH which bind to a different epitope, i.e. which are non-competitive binders. To identify (a) pair(s) of non-competitive binders, competition assays were performed. In the example shown, an Alexa fluor-conjugate of the high affine VHH 13F11 was used as the reporter VHH (13F11-A647, see example 10.2). In the assay, a non-saturating amount (10 nM) of 13F11-A647 was incubated with immobilized hIGF2R-ECD in the presence or absence of 250 nM unconjugated competitor VHH to allow competition to take place.
# Similar as to in example 6.1, competition assays were performed to identify unique hPDGFRB- or rPDGFRB binders. Across 10 PDGFRB-binding VHHs obtained from libraries 1 and 2 (e.g. the VHH raised against hPDGFRB), four main groups were identified being first SP01P, SP02P, SP07P and SP13P, second SP05P, SP08P and SP10P, third SP12P and SP20P and finally SP14P. All VHH within each of the first three groups mutually competed.
# To evaluate whether the obtained VHHs would qualify as building blocks for multivalent VHH constructs that bind hPDGFRB as well as rPDGFRB (e.g. ‘species cross-reactive’ VHH constructs), competition assays were performed using the most promising VHHs SP02 (raised against hPDGFRB) and SP26P (raised against rPDGFRB).
# hPDGFRB, sequence (P09619 33-532 limits assumed): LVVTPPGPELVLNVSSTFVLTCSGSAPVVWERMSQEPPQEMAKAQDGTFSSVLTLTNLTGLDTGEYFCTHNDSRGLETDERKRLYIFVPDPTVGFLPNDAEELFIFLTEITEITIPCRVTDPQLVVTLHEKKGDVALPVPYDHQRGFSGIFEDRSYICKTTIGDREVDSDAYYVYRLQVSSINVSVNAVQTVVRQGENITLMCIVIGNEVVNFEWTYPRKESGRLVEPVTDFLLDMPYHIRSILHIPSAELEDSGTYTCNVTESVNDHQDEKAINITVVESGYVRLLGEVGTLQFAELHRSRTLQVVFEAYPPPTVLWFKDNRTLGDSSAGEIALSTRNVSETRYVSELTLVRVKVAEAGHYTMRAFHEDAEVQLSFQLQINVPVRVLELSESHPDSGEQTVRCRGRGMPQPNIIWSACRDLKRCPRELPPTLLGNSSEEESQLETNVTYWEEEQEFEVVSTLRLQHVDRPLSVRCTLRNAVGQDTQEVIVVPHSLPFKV
row,Molecule,competition between SP02 and SP26P
1,B1,did not compete

# Same assay, conditions: VHHs from libraries 1 and 2; four main groups
row,Molecule,epitope group (mutual competition)
1,B2,first
2,B3,second
3,B4,third
4,B5,first
5,B6,second
6,B7,first
7,B1,first
8,B8,second
9,B9,lone VHH
